Measurements: paper PMC11480844

B1: H2-Kb / H5 (parent)
chain 1: GEQVEQRPPHLSVREGDSAVIICTYTDPNSYYFFWYKQEPGAGLQLLMKVFSSTEINEGQGFTVLLNKKDKQLSLNLTAAHPGDSAVYFCAVSNYGSSGNKLIFGIGTLLSVKP
chain 2: EAAVTQSPRNKVAVTGGKVTLSCNQTNNHNNMYWYRQDTGHGLRLIHYSYGAGSTEKGDIPDGYKASRPSQENFSLILELATPSQTSVYFCASGDRERDTQYFGPGTRLLVL
chain 3: not shown
chain 4: IQKTPQIQVYSRHPPENGKPNILNCYVTQFHPPHIEIQMLKNGKKIPKVEMSDMSFSKDWSFYILAHTEFTPTETDTYACRVKHDSMAEPKTVYWDRDM
chain 5: SIINFEKL
B2: H2-Kb / B13 (parent)
chain 1: AQKVTQTQTSISVMEKTTVTMDCVYETQDSSYFLFWYKQTASGEIVFLIRQDSYKKENATVGHYSLNFQKPKSSIGLIITATQIEDSAVYFCAMREGTGGYKVVFGSGTRLLVSP
chain 2: EAAVTQSPRNKVTVTGGNVTLSCRQTNSHNYMYWYRQDTGHGLRLIHYSYGAGNLQIGDVPDGYKATRTTQEDFFLLLELASPSQTSLYFCASSDGTGHEQYFGPGTRLTVL
chain 3: not shown
chain 4: B1 chain 4
chain 5: SIINFEKL

Variants of: B1
Experiment: % of reporter cells activated (NFAT-GFP), raw
Conditions: with H5; scale: % of reporter cells activated
Note: test concentration or dose not given here.

Ratio to parent of substitutions, site by site:
chain 5 E6: H 0.643, Y 0.332, M 0.311, L 0.265, T 0.459, D 0.235, C 0.342, K 0.332, A 0.454, P 0.301, N 0.301, F 0.296, S 0.444, I 0.408, G 0.306, V 0.342, W 0.25, Q 0.357, R 0.362
chain 5 S1: W 0.332, N 0.352, Y 0.27, P 0.383, K 0.602, F 0.638, G 0.25, L 0.398, M 2.39, I 0.454, Q 0.469, T 0.587, D 0.281, E 0.281, C 0.316, A 0.474, R 0.852, V 0.388, H 0.474
chain 5 N4: L 0.469, M 0.352, G 0.362, T 0.352, F 1.27, Y 1.1, R 0.454, H 8.69, W 0.5, P 0.255, S 0.332, D 0.316, K 0.592, C 0.49, V 0.332, I 0.347, E 0.367, A 0.301, Q 0.245
chain 5 I2: Q 0.454, H 0.332, K 0.388, E 0.408, Y 0.352, D 0.505, G 0.505, C 0.74, N 0.362, W 0.378, L 0.607, R 0.24, P 0.327, V 1.03, S 0.75, T 0.526, F 0.653, A 0.663, M 0.684
chain 5 K7: D 0.597, L 0.638, A 0.648, M 0.362, Y 0.383, E 4.34, T 1.8, S 0.76, H 0.806, I 1.12, V 0.75, W 0.352, R 1.01, P 0.551, C 0.77, Q 0.592, G 0.811, F 0.306, N 0.893
chain 5 L8: K 0.837, C 0.781, N 0.281, H 0.985, I 0.786, S 0.464, W 0.255, V 0.531, R 0.485, D 0.352, M 0.689, E 0.49, A 0.709, Q 0.842, T 0.719, F 0.423, P 0.332, G 0.515, Y 0.755
chain 5 F5: E 0.352, H 0.719, N 0.48, W 0.515, Q 0.638, I 2.01, G 0.316, Y 0.765, K 0.362, L 0.663, V 0.617, R 0.311, C 0.816, A 0.923, T 0.367, P 0.459, M 1.13, S 0.531, D 0.439
chain 5 I3: V 0.985, W 0.286, P 0.49, C 0.5, Y 0.321, R 0.403, F 0.276, N 0.367, Q 0.337, G 0.347, S 0.276, D 0.265, K 0.423, A 0.306, E 0.357, T 0.352, L 0.74, M 0.327, H 0.372

Variants of: B2
Experiment: % of reporter cells activated (NFAT-GFP), raw
Conditions: with B13; scale: % of reporter cells activated

Ratio to parent, by site and new letter:
chain 5 F5: L 0.117, P 0.144, N 0.0634, T 0.195, G 0.0418, M 0.316, D 0.179, Q 0.0482, Y 0.712, I 0.0887, S 0.0431, A 0.131, R 0.0811, C 0.132, E 0.0684
